Consider four molecules from patent US20130143227A1 (University of Texas, published 2013).

The labels stand for the following.
T1: Myc-LGR5 (human LGR5, predicted mature form aa21-907, N-terminal Myc tag), expressed on HEK293 cells (human, UniProt O75473 22-907)
T1 construct: Residues 21-907 are counted on NP-003658
T1 sequence: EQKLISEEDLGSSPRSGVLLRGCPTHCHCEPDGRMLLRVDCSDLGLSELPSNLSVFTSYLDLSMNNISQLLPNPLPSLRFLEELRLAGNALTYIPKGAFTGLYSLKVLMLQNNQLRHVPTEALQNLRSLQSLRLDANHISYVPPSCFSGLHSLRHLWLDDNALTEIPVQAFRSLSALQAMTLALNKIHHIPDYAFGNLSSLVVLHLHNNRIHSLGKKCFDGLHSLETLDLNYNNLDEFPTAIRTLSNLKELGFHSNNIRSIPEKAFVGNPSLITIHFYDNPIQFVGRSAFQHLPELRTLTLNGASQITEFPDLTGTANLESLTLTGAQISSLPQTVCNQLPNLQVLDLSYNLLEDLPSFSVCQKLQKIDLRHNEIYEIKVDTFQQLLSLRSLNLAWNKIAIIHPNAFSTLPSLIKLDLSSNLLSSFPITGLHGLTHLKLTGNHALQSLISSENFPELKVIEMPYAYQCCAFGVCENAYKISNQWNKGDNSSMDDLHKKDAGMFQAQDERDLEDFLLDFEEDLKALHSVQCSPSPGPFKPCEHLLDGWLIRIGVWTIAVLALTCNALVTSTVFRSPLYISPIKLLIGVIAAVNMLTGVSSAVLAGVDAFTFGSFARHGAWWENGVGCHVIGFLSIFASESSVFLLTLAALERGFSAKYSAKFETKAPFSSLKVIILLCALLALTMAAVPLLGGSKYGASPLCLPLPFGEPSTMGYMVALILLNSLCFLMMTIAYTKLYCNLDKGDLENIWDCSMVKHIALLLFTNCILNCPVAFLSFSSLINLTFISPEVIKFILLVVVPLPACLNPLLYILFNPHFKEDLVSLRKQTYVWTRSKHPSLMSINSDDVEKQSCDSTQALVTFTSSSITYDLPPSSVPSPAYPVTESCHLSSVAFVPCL

T2: FLAG-LGR6 (human LGR6, predicted mature form aa25-967, N-terminal FLAG tag), expressed on HEK293 cells (human, UniProt Q9HBX8 26-967)
T2 construct: Residues 25-967 are counted on NP-001017403
T2 sequence: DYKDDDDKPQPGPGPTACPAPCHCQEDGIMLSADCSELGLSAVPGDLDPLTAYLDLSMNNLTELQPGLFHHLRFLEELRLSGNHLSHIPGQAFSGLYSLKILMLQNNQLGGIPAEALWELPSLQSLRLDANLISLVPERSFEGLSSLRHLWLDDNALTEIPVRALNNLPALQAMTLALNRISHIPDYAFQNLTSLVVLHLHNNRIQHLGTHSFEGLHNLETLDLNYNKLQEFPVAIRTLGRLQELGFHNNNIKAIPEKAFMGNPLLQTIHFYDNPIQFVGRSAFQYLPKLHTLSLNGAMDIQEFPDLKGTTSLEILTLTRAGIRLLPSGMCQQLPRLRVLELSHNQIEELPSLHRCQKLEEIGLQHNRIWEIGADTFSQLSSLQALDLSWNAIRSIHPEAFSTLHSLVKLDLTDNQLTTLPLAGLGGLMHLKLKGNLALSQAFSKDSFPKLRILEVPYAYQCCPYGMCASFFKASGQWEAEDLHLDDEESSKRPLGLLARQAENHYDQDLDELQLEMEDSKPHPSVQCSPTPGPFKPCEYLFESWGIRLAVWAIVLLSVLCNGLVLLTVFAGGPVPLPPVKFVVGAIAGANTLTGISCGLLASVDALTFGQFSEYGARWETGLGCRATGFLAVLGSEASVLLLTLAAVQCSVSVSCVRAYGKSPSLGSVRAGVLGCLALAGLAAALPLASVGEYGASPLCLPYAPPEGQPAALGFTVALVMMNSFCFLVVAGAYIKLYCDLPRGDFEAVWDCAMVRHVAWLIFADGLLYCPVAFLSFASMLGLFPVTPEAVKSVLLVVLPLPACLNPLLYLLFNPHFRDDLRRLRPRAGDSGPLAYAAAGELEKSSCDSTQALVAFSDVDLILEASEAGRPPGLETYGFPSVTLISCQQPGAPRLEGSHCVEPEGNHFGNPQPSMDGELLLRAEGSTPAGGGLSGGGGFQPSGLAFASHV

B1: recombinant human RSPO4 (ligand)
chain: LNRRKKQVGTGLGGNCTGCIICSEENGCSTCQQRLFLFIRREGIRQYGKCLHDCPPGYFGIRGQEVNRCKKCGATCESCFSQDFCIRCKRQFYLYKGKCLPTCPPGTLAHQNTRECQGECELGPWGGWSPCTHNGKTCGSAWGLESRVREAGRAGHEEAATCQVLSESRKCPIQRPCPGERSPGQKKGRKDRRPRKDRKLDRRLDVRPRQPGLQP
notes: Bought from R&D Systems; also called R-spondin 4
B2: recombinant human RSPO2 (ligand, UniProt Q6UXX9 22-243, looked up)
chain: QGNRWRRSKRASYVSNPICKGCLSCSKDNGCSRCQQKLFFFLRREGMRQYGECLHSCPSGYYGHRAPDMNRCARCRIENCDSCFSKDFCTKCKVGFYLHRGRCFDECPDGFAPLEETMECVEGCEVGHWSEWGTCSRNNRTCGFKWGLETRTRQIVKKPVKDTILCPTIAESRRCKMTMRHCPGGKRTPKAKEKRNKKKKRKLIERAQEQHSVFLATDRANQ
notes: Bought from R&D Systems; also called R-spondin 2
B3: recombinant human RSPO1 (ligand, UniProt Q2MKA7 21-263, looked up)
chain: SRGIKGKRQRRISAEGSQACAKGCELCSEVNGCLKCSPKLFILLERNDIRQVGVCLPSCPPGYFDARNPDMNKCIKCKIEHCEACFSHNFCTKCKEGLYLHKGRCYPACPEGSSAANGTMECSSPAQCEMSEWSPWGPCSKKQQLCGFRRGSEERTRRVLHAPVGDHAACSDTKETRRCTVRRVPCPEGQKRRKGGQGRRENANRNLARKESKEAGAGSRRRKGQQQQQQQGTVGPLTSAGPA
notes: Bought from R&D Systems; also called R-spondin 1
B4: recombinant human RSPO3 (ligand)
chain: QNASRGRRQRRMHPNVSQGCQGGCATCSDYNGCLSCKPRLFFALERIGMKQIGVCLSSCPSGYYGTRYPDINKCTKCKADCDTCFNKNFCTKCKSGFYLHLGKCLDNCPEGLEANNHTMECVSIVHCEVSEWNPWSPCTKKGKTCGFKRGTETRVREIIQHPSAKGNLCPPTNETRKCTVQRKKCQKGERGKKGRERKRKKPNKGESKEAIPDSKSLESSKEIPEQRENKQQQKKRKVQDKQKSVSVSTVH
notes: Bought from R&D Systems; also called R-spondin 3

The first experiment addresses T1, Myc-LGR5 (human LGR5, predicted mature …). Description: whole-cell fluorescence competition binding, displacement of mRSPO1-Fc (~5 nM) from HEK293 cells expressing Myc-LGR5. The method, then: (§1) A fluorescence-based whole-cell competition binding assay was developed to determine whether purified, recombinant RSP01-4 could compete with mRSPO1-Fc for binding to LGR4-6. HEK293 cells stably expressing Myc-LGR4, Myc-LGR5, or FLAG-LGR6 were seeded into poly-D-lysine-coated 96-well black/clear bottom plates (Becton Dickinson) at ˜60,000 cells/well. After overnight culturing, the plates were chilled on ice for 5 min, media were removed from each well, and the cells were washed twice with cold PBS. The recombinant RSPOs under investigation were diluted in 3-fold serial dilutions in cold OPTI-MEM®+0.5% BSA and added onto the cells at 50 μl/well, followed immediately by the addition of equal volume of mRSPO1-Fc diluted by 1:100 in the same buffer. The cells were the incubated for 3.5 hrs at 4° C. with gentle agitation, followed by three quick washes with cold PBS. The cells were then fixed in 4% paraformaldehyde/PBS for 15 min at room temperature and washed 3× with PBS. The cells were further incubated with Alexa Fluor® 647-labeled goat anti-mouse IgG (H+L) (Invitrogen, diluted by 1:200) in OPTI-MEM®+0.5% BSA for 1 hr at room temperature. The cells were washed thrice with PBS and fluorescence intensity was measured using a Tecan M1000 plate reader with excitation at 630 nm and emission at 670 nm. All experiments were performed at least twice with quadruplicate replicates in each experiment. HEK293 cells stably expressing Myc-LGR4 (shown in FIG. 4B), Myc-LGR5 (shown in FIG. 4C), or FLAG-LGR6 (shown in FIG. 4D) were incubated with mRSPO1Fc at ˜5 nM plus serial dilutions of purified recombinant RSPO1-4 for 3-4 hrs at 4° C. Binding of mRSPO1-Fc was detected with Alexa Fluor® 647-labeled anti-mouse IgG. Maximum specific binding is defined by the difference between the data of with and without mRSPO1-Fc which is approximately 50% of total binding in general. All error bars are S.E.M. (n=4). […] As shown in FIGS. 4B-D, RSPO1-4 were able to completely displace the binding of mRSPO1-Fc to LGR4-6 with IC50's in the nM range, the one exception was the μM IC50's for RSPO3 (SEQ ID NO:46; SEQ ID NO:47) and RSPO4 (SEQ ID NO:48; SEQ ID NO:49) binding to LGR4.
Consider B1, for which the IC50 is 11 nM.
On to B2, for which the IC50 is 0.5 nM.
Still for that read-out and setting: the same measure for B3: 4 nM.
Turning to B4, the IC50 was 2.1 nM.

The next experiment has as its target T2, FLAG-LGR6 (human LGR6, predicted mature …). The experiment is described as follows: whole-cell fluorescence competition binding, displacement of mRSPO1-Fc (~5 nM) from HEK293 cells expressing FLAG-LGR6. The method, then: as §1
For the molecule B1, the IC50 was 7.7 nM.
Still for that read-out and setting: the same measure for B2: 0.5 nM; for B3: 3.3 nM.
As for B4, the IC50 is 1.3 nM.

One may read the IC50 as the concentration at which inhibition is half-maximal.
